For assay [1], the target named is cyno CD21 protein (cynomolgus monkey). Put plainly: SPR (Biacore). On the technique in general: In SPR one partner is held on a chip, and binding of the other changes the refractive index at the surface.
Assay [2] addresses T1, human CD21 on Raji B cells or primary B cells (human, UniProt P20023 21-1033).
T1 sequence (looked up): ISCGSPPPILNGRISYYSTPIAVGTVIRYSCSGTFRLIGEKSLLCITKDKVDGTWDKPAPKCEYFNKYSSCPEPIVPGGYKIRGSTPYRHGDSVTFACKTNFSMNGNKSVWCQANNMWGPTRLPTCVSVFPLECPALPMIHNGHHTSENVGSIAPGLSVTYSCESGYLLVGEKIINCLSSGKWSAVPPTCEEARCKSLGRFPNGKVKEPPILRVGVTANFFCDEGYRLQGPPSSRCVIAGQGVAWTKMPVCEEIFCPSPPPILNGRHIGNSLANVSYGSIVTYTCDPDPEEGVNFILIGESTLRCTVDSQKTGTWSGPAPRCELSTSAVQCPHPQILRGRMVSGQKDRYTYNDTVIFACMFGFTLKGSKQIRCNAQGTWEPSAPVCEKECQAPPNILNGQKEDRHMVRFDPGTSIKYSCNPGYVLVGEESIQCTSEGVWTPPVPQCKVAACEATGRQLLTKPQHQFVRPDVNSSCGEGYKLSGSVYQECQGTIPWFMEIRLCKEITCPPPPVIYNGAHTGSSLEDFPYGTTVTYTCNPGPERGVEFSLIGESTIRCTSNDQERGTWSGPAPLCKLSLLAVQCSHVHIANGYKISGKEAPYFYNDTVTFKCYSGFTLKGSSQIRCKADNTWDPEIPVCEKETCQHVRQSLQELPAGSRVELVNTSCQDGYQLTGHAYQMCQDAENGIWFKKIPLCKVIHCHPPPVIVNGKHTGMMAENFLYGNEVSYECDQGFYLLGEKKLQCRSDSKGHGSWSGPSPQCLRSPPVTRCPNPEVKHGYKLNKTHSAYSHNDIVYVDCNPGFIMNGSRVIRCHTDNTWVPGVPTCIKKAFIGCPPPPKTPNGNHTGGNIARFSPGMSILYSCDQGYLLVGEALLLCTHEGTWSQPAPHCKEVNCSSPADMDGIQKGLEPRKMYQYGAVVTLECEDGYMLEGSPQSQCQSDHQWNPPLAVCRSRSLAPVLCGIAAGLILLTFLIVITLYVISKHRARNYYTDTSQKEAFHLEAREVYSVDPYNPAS
Put plainly: cell-based or functional assay.

Assay [3] addresses cyno CD21 protein (cynomolgus monkey). Put plainly: SPR (Biacore). This is another data set of the same source.
The target of assay [4] is insulin (UniProt P01308). Put plainly: polyreactivity ELISA on coated insulin; third number of the cell.
insulin, sequence (P01308 25-54 limits assumed, chain 1 of 2): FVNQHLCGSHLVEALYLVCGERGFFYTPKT
insulin, sequence (P01308 90-110 limits assumed, chain 2 of 2): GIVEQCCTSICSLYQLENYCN
Assay [5] deals with T2, human CD21 protein (human, UniProt P20023 21-971, limits assumed).
T2 construct: the Biacore set-up is not described; also called huCD21; CR2
T2 sequence (looked up): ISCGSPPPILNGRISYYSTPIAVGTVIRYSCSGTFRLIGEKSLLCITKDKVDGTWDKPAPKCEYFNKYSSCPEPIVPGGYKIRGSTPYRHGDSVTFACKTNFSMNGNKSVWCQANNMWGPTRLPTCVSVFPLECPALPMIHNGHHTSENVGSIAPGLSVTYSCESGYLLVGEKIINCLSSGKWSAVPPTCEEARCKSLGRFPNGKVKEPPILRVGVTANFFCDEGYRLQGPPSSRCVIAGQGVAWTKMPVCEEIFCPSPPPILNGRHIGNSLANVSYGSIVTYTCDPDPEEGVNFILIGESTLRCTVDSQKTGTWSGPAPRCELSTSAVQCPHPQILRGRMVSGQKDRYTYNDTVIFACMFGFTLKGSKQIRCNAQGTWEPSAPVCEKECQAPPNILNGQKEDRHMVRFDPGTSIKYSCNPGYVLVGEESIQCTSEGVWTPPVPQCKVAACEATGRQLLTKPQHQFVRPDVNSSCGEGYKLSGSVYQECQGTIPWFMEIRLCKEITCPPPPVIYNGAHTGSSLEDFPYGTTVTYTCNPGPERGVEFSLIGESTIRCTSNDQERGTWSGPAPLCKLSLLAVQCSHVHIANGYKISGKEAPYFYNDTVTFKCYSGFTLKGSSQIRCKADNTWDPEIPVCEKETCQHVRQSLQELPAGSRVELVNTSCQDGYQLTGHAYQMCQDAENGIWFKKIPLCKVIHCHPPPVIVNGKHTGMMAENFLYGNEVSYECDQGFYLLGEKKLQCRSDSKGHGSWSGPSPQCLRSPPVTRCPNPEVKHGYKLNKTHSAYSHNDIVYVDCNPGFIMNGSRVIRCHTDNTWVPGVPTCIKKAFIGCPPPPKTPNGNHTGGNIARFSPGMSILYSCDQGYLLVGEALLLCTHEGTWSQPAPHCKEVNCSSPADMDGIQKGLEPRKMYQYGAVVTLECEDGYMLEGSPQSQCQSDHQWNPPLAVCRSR
In words: SPR (Biacore).

For assay [6], the target named is T2, human CD21 protein. Put plainly: affinity KD; method not restated (Biacore elsewhere).
Assay [7] deals with cyno CD21 protein (cynomolgus monkey). Put plainly: SPR (Biacore), KD against Ab89.
Assay [8] concerns the target T2, human CD21 protein. In words: SPR (Biacore), KD against Ab89.
Assay [9] concerns the target T1, human CD21 on Raji B cells or primary B …. Put plainly: cell-based or functional assay. The source holds these as a separate data set.
Assay [10] concerns the target cyno CD21 protein (cynomolgus monkey). Put plainly: affinity KD; method not restated (Biacore elsewhere).
Assay [11] addresses T2, human CD21 protein. Put plainly: SPR (Biacore). The source holds these as a separate data set.
In assay [12] the target is T1, human CD21 on Raji B cells or primary B …. In words: Raji B cell binding.
The target is the same in assay [13]. Put plainly: competition with human C3d on primary B cells.
Assay [14] addresses T2, human CD21 protein. Put plainly: SPR (Biacore). The source holds these as a separate data set.
The target of assay [15] is T1, human CD21 on Raji B cells or primary B …. Put plainly: competition with human C3d on Raji B cells.
Assay [16] addresses T2, human CD21 protein. Put plainly: affinity KD; method not restated (Biacore elsewhere). This is another data set of the same source.

Changes are numbered by the printed parent chain. Where two headings read alike, the source gives them in different places.

B1: Ab423 (antibody, human IgG1, kappa, V domains shown)
VH: QVQLVQSGAEVKKPGSSVKVSCKASGGTFSSYAISWVRQAPGQGLEWMGRIIPILGIANYAQKFQGRVTITADKSTSTAYMELSSLRSEDTAVYYCAREDDISGYYQDWGQGTLVTVSS
VL: EIVMTQSPATLSVSPGERATLSCRAGQSINSYLAWYQQKPGQAPRLLIYDASTRATGIPARFSGSGSGTEFTLTISSLQSEDFAVYYCQQYEYWYTFGQGTKLEIKR
notes: IgG1
The term Kd denotes the equilibrium constant for the complex coming apart. The low end stands for a tighter complex, the high end for a looser complex. For the molecule B1, the Kd in assay [1] worked out at 0.233 nM; in [3], 0.23 nM; in [5], 0.039 nM; in assay [6], 0.039 nM; in assay [10], 0.23 nM; in assay [11], 0.0399 nM. Moreover, the “pAKT inhibition, IC50, nM; Primary B cells” value in assay [2] and in assay [9] was 7.94 nM each time. The “pAKT inhibition, IC50, nM; Raji B cells” value in assay [2] and in assay [9] was 14.9 nM each time. In assay [4], the insulin-binding score (ratio to buffer well) is 2. For the same molecule, the fold affinity improvement over parental Ab89 was found to be 92 fold in [7] and 1780 fold in assay [8].

B2: Ab89 (antibody, human IgG1, kappa, V domains shown)
VH: B1 VH with I102S
VL: B1 VL with Y32H
notes: IgG1; also called germlined derivative of Ab15
As a reminder, the EC50 is the concentration at which the effect is half-maximal. One may read the IC50 as the concentration that inhibits the measured activity by half. A high value points to weaker potency in that assay. As to B2, the figures for the Kd in assay [1] and in assay [14] were 21.4 nM and 71.1 nM, respectively. In assay [12], the EC50 came out at 6.37 nM. Moreover, the concentration for half-maximal inhibition (IC50) in [13] was 1220 pM; in assay [15] it was 2130 pM.

B3: Ab646 (antibody, human IgG1, kappa, V domains shown)
VH: B1 VH with T28E, F29L, S30Q, S31T, Y32L, D100E
VL: B1 VL with N30S, T53S, T96S
notes: IgG1
On to B3, for which the insulin-binding score (ratio to buffer well) in [4] turned out to be 1. Also, the dissociation constant Kd in [16] turned out to be 0.01 nM; in assay [6] it was 0.01 nM; in assay [10], 0.05 nM.

B4: Ab194 (antibody, human IgG1, kappa, V domains shown)
VH: B1 VH with S31T, I102S
VL: B1 VL
notes: full-length human IgG1
B4: the Kd was 9.16 nM in assay [1] and 0.81 nM in [14]. Also, the IC50 in assay [13] was 6 pM; in assay [15], 9 pM. In addition, the fold improvement of KD over Ab89 in assay [7] turned out to be 2 fold. Besides, the “fold improvement of affinity over Ab89” value in assay [8] was approximately 81 fold.

B5: Ab204 (antibody, human IgG1, kappa, V domains shown)
VH: B1 VH with T28E, F29L, S30Q, S31D, Y32L
VL: B1 VL with Y32H
notes: full-length human IgG1
Regarding B5, the Kd in assay [1] was 0.06 nM; in assay [14] it was 0.81 nM. The figures for the 50% inhibitory concentration (IC50) in assay [13] and in assay [15] were 7 pM and 5 pM, respectively. Further, in assay [7], the fold improvement of KD over Ab89 is 357 fold. In assay [8], the “fold improvement of affinity over Ab89” value was approximately 81 fold.

B6: Ab648 (antibody, human IgG1, kappa, V domains shown)
VH: B1 VH with T28E, F29L, S31T, D100E
VL: B1 VL with N30S, T53S, T96S
notes: IgG1
On to B6, for which the insulin-binding score (ratio to buffer well) in [4] is 1. The dissociation constant Kd in assay [16] was found to be 0.01 nM; in assay [6] it was 0.01 nM; in [10] it was 0.15 nM.

For the origin of these results see patent US20240376225A1 (CHILDREN S MEDICAL CENTER, published 2024).
